Data: patent US20190321455A1 (KOREA RESEARCH INSTITUTE OF BIOSCIENCE AND BIOTECHNOLOGY, published 2019)

What was measured:
[1] = target: T1, Strep-tagged EPRS mono-phosphomimetic S990D (Homo sapiens (Human), UniProt P07814 1-1512); test: Strep precipitation from 293T cells, immunoblot
T1 construct: Expressed in 293T cells; also called EPRS S990D; not shown: Strep tag

[2] = target: T2, EPRS, endogenous protein of U937 cells (human, UniProt P07814 1-1512, phospho-Ser990 induced by PR8 infection; phospho-Ser886 also detected); test: endogenous co-IP with anti-EPRS antibody from PR8-infected U937 cells, anti-GAPDH immunoblot
T2 construct: Endogenous protein immunoprecipitated with anti-EPRS antibody; also called glutamyl-prolyl-tRNA synthetase

[3] = target: T3, Strep-EPRS (Strep-tagged full-length glutamyl-prolyl-tRNA synthetase, wild type) (Homo sapiens (Human), UniProt P07814 1-1512); test: Strep-EPRS complexes from PR8-infected 293T cells, mass spectrometry
T3 construct: Expressed in HEK293T cells and pulled down with Strep-Tactin; Mass spectrometry found phospho-Ser886, and phospho-Ser990 after PR8 infection; also called Strep-EPRS WT; not shown: Strep tag

[4] = target: T4, His-tagged EPRS (aa 1-168; GST-like domain alone), purified from E. coli (Homo sapiens (Human), UniProt P07814 1-168); test: in vitro His-tag (Ni-NTA) precipitation with purified proteins
T4 construct: not shown: hexahistidine tag
T4 sequence: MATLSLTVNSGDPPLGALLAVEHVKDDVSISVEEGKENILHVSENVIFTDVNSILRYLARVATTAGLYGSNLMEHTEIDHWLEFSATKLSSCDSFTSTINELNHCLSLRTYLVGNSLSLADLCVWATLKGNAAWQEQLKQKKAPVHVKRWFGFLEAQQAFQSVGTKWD

[5] = target: T5, His-tagged EPRS (aa 1-196), purified from E. coli (Homo sapiens (Human), UniProt P07814 1-196); test: in vitro His-tag (Ni-NTA) precipitation with purified proteins, Coomassie
T5 construct: also called GST and L1 regions of EPRS; not shown: hexahistidine tag
T5 sequence: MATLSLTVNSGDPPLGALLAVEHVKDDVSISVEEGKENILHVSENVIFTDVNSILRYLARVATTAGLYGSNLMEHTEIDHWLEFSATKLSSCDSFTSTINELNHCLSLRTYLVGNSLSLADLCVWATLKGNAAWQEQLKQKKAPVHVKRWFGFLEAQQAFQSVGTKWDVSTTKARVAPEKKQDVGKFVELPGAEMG

[6] = target: T3, Strep-EPRS (Strep-tagged full-length …); test: Strep precipitation of 293T lysates expressing Strep-EPRS and forms of GST-PCBP2, anti-GST immunoblot
[7] = target: T6, EPRS, endogenous protein of RAW264.7 cells (UniProt Q8CGC7 1-1512, phospho-Ser990 induced by PR8 infection); test: endogenous immunoprecipitation with anti-PCBP2 antibody, PR8-infected RAW264.7 cells
T6 construct: Endogenous protein in cell lysates; The mouse origin is inferred from the cell line
T6 sequence (Q8CGC7 whole entry): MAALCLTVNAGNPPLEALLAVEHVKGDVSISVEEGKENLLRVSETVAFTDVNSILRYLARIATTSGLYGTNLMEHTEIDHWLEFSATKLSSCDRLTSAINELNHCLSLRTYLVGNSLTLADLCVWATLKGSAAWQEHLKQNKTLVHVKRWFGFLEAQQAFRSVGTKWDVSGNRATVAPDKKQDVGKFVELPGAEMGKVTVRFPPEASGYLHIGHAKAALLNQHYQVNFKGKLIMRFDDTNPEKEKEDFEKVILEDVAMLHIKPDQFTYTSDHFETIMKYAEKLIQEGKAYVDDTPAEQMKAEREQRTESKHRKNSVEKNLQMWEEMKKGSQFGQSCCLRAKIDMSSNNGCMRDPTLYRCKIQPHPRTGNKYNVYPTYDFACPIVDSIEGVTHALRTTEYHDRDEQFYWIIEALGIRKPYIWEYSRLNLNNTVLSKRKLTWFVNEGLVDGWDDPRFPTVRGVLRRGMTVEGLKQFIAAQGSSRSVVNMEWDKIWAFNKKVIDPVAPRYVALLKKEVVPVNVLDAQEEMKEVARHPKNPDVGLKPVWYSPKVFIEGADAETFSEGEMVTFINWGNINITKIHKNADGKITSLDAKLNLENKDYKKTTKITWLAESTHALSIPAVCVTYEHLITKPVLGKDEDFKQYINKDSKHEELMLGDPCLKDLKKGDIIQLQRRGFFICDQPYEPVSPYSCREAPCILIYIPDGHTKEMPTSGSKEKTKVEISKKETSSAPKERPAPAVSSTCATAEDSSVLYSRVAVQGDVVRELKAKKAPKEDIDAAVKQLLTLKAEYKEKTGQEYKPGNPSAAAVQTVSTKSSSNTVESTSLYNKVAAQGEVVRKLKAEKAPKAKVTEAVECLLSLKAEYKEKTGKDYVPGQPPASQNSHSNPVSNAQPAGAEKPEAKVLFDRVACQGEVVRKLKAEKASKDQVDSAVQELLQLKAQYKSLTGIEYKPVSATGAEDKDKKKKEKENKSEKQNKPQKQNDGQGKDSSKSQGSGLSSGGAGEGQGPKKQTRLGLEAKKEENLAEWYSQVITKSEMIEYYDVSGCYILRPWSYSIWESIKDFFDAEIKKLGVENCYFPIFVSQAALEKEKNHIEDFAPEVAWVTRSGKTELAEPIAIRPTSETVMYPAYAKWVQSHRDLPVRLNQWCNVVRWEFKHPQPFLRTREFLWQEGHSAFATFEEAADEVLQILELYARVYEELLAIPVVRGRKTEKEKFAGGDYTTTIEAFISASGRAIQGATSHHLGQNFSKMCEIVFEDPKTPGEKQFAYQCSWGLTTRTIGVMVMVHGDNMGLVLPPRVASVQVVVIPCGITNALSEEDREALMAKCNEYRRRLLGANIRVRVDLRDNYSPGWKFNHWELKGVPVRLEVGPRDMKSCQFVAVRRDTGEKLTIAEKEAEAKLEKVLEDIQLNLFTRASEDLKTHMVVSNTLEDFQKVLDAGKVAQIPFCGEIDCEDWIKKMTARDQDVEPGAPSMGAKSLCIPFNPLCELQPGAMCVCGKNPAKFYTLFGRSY

[8] = target: T7, MAVS, endogenous protein of RAW264.7 cells (UniProt Q8VCF0 1-503); test: as above
T7 sequence (looked up): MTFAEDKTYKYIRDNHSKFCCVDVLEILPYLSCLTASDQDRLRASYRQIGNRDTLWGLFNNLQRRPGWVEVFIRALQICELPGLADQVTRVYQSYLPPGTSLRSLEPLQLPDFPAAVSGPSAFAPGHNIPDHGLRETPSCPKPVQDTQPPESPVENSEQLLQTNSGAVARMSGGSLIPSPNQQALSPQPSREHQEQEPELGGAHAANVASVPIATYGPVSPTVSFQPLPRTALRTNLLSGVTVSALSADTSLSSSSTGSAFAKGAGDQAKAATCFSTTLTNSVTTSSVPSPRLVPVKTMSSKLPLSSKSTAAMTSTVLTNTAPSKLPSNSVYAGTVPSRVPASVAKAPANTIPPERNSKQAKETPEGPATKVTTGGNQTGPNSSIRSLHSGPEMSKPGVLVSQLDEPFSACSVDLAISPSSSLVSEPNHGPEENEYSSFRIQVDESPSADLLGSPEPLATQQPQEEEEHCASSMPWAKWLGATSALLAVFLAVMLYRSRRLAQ

[9] = target: T8, MAVS-FLAG (mitochondrial antiviral-signaling protein expressed in 293T cells) (UniProt Q7Z434 1-540); test: anti-FLAG co-IP of 293T lysates expressing MAVS and forms of GST-PCBP2, anti-GST immunoblot
T8 construct: also called exogenous MAVS; not shown: FLAG tag
T8 sequence (Q7Z434 whole entry): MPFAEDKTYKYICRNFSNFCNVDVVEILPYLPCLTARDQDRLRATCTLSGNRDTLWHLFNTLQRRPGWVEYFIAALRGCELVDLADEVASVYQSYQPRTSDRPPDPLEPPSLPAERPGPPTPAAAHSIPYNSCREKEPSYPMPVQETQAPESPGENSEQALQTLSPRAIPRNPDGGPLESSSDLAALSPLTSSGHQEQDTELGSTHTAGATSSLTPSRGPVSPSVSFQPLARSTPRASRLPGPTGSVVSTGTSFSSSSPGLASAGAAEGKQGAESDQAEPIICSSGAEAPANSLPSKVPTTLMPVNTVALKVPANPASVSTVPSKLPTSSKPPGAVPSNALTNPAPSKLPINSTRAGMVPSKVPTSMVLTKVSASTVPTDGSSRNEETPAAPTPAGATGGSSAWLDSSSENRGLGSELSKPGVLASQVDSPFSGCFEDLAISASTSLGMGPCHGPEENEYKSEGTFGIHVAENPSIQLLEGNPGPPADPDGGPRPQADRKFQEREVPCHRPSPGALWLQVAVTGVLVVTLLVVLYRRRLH

[10] = target: T2, EPRS, endogenous protein of U937 cells; test: endogenous co-IP with anti-EPRS antibody, PR8-infected U937 cells

B1: MRS (methionyl-tRNA synthetase), endogenous protein of 293T cells (enzyme, UniProt P56192 1-900, looked up)
chain: MRLFVSDGVPGCLPVLAAAGRARGRAEVLISTVGPEDCVVPFLTRPKVPVLQLDSGNYLFSTSAICRYFFLLSGWEQDDLTNQWLEWEATELQPALSAALYYLVVQGKKGEDVLGSVRRALTHIDHSLSRQNCPFLAGETESLADIVLWGALYPLLQDPAYLPEELSALHSWFQTLSTQEPCQRAAETVLKQQGVLALRPYLQKQPQPSPAEGRAVTNEPEEEELATLSEEEIAMAVTAWEKGLESLPPLRPQQNPVLPVAGERNVLITSALPYVNNVPHLGNIIGCVLSADVFARYSRLRQWNTLYLCGTDEYGTATETKALEEGLTPQEICDKYHIIHADIYRWFNISFDIFGRTTTPQQTKITQDIFQQLLKRGFVLQDTVEQLRCEHCARFLADRFVEGVCPFCGYEEARGDQCDKCGKLINAVELKKPQCKVCRSCPVVQSSQHLFLDLPKLEKRLEEWLGRTLPGSDWTPNAQFITRSWLRDGLKPRCITRDLKWGTPVPLEGFEDKVFYVWFDATIGYLSITANYTDQWERWWKNPEQVDLYQFMAKDNVPFHSLVFPCSALGAEDNYTLVSHLIATEYLNYEDGKFSKSRGVGVFGDMAQDTGIPADIWRFYLLYIRPEGQDSAFSWTDLLLKNNSELLNNLGNFINRAGMFVSKFFGGYVPEMVLTPDDQRLLAHVTLELQHYHQLLEKVRIRDALRSILTISRHGNQYIQVNEPWKRIKGSEADRQRAGTVTGLAVNIAALLSVMLQPYMPTVSATIQAQLQLPPPACSILLTNFLCTLPAGHQIGTVSPLFQKLENDQIESLRQRFGGGQAKTSPKPAVVETVTTAKPQQIQALMDEVTKQGNIVRELKAQKADKNEVAAEVAKLLDLKKQLAVAEGKPPEAPKGKKKK
notes: 293T cells are a human line
- binding result [1]: no binding

B2: GAPDH (glyceraldehyde-3-phosphate dehydrogenase), endogenous protein of human cells (U937, 293T) (enzyme)
chain: not shown
- binding result [2]: no binding
- binding result [3]: no binding

B3: GST-fused PCBP2 KH1 (aa 11-82), purified from E. coli (other, UniProt Q15366 11-82, looked up)
chain: NVTLTIRLLMHGKEVGSIIGKKGESVKKMREESGARINISEGNCPERIITLAGPTNAIFKAFAMIIDKLEED
notes: range 11-82; also called PCBP2 KH1 (aa 11-82) domain; not shown: GST
- binding result [4]: no binding
- binding result [5]: binds

B4: GST-PCBP2 linker region, expressed in 293T cells (other, UniProt Q15366 168-279, looked up)
chain: ETLSQSPPKGVTIPYRPKPSSSPVIFAGGQDRYSTGSDSASFPHTTPSMCLNPDLEGPPLEAYTIQGQYAIPQPDLTKLHQLAMQQSHFPMTHGNTGFSGIESSSPEVKGYW
notes: domain: linker region; not shown: GST tag
- binding result [6]: no binding

B5: PCBP2, endogenous protein of RAW264.7 cells (other, UniProt Q61990 1-362, looked up)
chain: MDTGVIEGGLNVTLTIRLLMHGKEVGSIIGKKGESVKKMREESGARINISEGNCPERIITLAGPTNAIFKAFAMIIDKLEEDISSSMTNSTAASRPPVTLRLVVPASQCGSLIGKGGCKIKEIRESTGAQVQVAGDMLPNSTERAITIAGIPQSIIECVKQICVVMLESPPKGVTIPYRPKPSSSPVIFAGGQDRYSTGSDSASFPHTTPSMCLNPDLEGPPLEAYTIQGQYAIPQPDLTKLHQLAMQQSHFPMTHGNTGFSGIESSSPEVKGYWAGLDASAQTTSHELTIPNDLIGCIIGRQGAKINEIRQMSGAQIKIANPVEGSTDRQVTITGSAASISLAQYLINVRLSSETGGMGSS
notes: also called PBP2
- binding result [7]: binds
- binding result [8]: binds

B6: GST-PCBP2 N-terminal KH1 domain (aa 1-81), expressed in 293T cells (other, UniProt Q15366 1-81, looked up)
chain: MDTGVIEGGLNVTLTIRLLMHGKEVGSIIGKKGESVKKMREESGARINISEGNCPERIITLAGPTNAIFKAFAMIIDKLEE
notes: range 1-81; also called PCBP2 KH1; not shown: GST tag
- binding result [6]: binds
- binding result [9]: binds

B7: PCBP2, endogenous protein of human cells (293T, U937) (other, UniProt Q15366 1-365, looked up)
chain: MDTGVIEGGLNVTLTIRLLMHGKEVGSIIGKKGESVKKMREESGARINISEGNCPERIITLAGPTNAIFKAFAMIIDKLEEDISSSMTNSTAASRPPVTLRLVVPASQCGSLIGKGGCKIKEIRESTGAQVQVAGDMLPNSTERAITIAGIPQSIIECVKQICVVMLETLSQSPPKGVTIPYRPKPSSSPVIFAGGQDRYSTGSDSASFPHTTPSMCLNPDLEGPPLEAYTIQGQYAIPQPDLTKLHQLAMQQSHFPMTHGNTGFSGIESSSPEVKGYWGLDASAQTTSHELTIPNDLIGCIIGRQGAKINEIRQMSGAQIKIANPVEGSTDRQVTITGSAASISLAQYLINVRLSSETGGMGSS
notes: also called PBP2
- binding result [10]: binds

B8: AIMP3 (ARS-interacting multifunctional protein 3), endogenous protein of human cells (U937, 293T) (other, UniProt O43324 2-174, looked up)
chain: AAAAELSLLEKSLGLSKGNKYSAQGERQIPVLQTNNGPSLTGLTTIAAHLVKQANKEYLLGSTAEEKAIVQQWLEYRVTQVDGHSSKNDIHTLLKDLNSYLEDKVYLTGYNFTLADILLYYGLHRFIVDLTVQEKEKYLNVSRWFCHIQHYPGIRQHLSSVVFIKNRLYTNSH
- binding result [1]: no binding
